# Assays:
# [1] = system: L1210 cells; assay: Nuclear uptake of biotinylated protein, confocal microscopy; format: cell-based, murine
# Description: (§1) To detect intracellular protein, the cells were fixed at various times after addition of 0.3 mg/ml of biotinylated MAL for 5 min in phosphate-buffered paraformaldehyde (4%) (B. Sander et al., Immunol. Rev. (1991) 119: 65-92) at room temperature, washed in PBS, and permeabilized with 0.1% saponin in PBS. FITC conjugated streptavidin (diluted 1:100 in 0.1% saponin) was added and the cells were incubated for 30 min at room temperature. The cells were washed twice in PBS-saponin and once in PBS, mounted on a glass slide and analysed in a Bio-Rad 1024 laser scanning confocal equipment (Bio Rad Laboratories, Hemel-Hempstead, UK) attached to a Nikon Diaphot inverted microscope.
# [2] = system: digitonin-permeabilized L1210, A549 and HRTEC cells; assay: Nuclear uptake of biotinylated protein in digitonin-permeabilized cells; format: cell-based; conditions: digitonin treated cells, biotinylated MAL
# Description: Briefly, 1×10^6 cells were incubated in 100 μl of nuclear transport buffer (NTB), with the addition of 1 μg/ml each of leupeptin, aprotinin, antipain, and 40 μg/ml of digitonin for 5 min at room temperature and washed by centrifugation at 320×g for 10 min in NTB. Biotinylated protein (5 μl, 5 mg/ml) was added to the cells in a total volume of 100 μl NTB supplemented with phosphcreatin, creatine phosphokinase and ATP, incubated for various time at RT and washed twice in NTB by centrifugation at 320×g for 10 min. The cells were treated with 0.2% Triton-X100 in NTB for 6 min and washed finally 1:100 dilution of fluorescein-conjugated strepatvidin was added for 30 min at RT and washed. The cells were then inspected by fluorescence microscopy in a Nikon Microphot (Japan) microscope or by laser scanning confocal microscopy in a BioRad MRC-1024 instrument.
# Digitonin permeabilizes the plasma nembrane, but leaves the nuclear membrane intact. […] Human IgG and monomeric α-lactalbumin were used as controls.
# The digitonin-permeabilized L1210 cells were preincubated with 50 μg/ml of WGA for 20 minutes, washed and exposed to biotinylated MAL. IgG and α-lactalbumin were used as controls (FIG. 7).
# The cells pretreated with WGA were then washed by centrifugation in NTB at 320×g for 10 min before addition of protein.
# [3] = system: HRTEC cells; assay: Nuclear uptake of biotinylated protein, confocal microscopy; format: cell-based, human; conditions: biotinylated MAL (1 mg/ml elsewhere in the source)
# Description: as §1, with “To detect intracellular protein, the cells were fixed at various times after addition of 0.3 mg/ml of biotinylated MAL for 5 min in phosphate-buffered paraformaldehyde (4%) (B.” left out
molecule,measurement,setting,value
"MAL: protein complex from human milk casein containing oligomeric forms of α-lactalbumin; the apoptosis-inducing fraction (protein, UniProt P00709 20-142, looked up, oligomeric form from milk casein, protein complex from human milk casein containing oligomeric forms of α-lactalbumin; the apoptosis-inducing fraction) Alpha-lactalbumin: KQFTKCELSQLLKDIDGYGGIALPELICTMFHTSGYDTQAIVENNESTEYGLFQISNKLWCKSSQVPQSRNICDISCDKFLDDDITDDIMCAKKILDIKGIDYWLAHKALCTEKLEQWLCEKL",cells with nuclear staining,"[1]; 0.3 mg/ml biotinylated protein, after about 2 hours (first detected)",about 10%
same,cells with nuclear staining,"[1]; 0.3 mg/ml, after 1 hour",10%
same,cytoplasmic staining,[1]; biotinylated MAL,Cytoplasmic staining was not observed
same,time at which maximum nuclear levels were reached,[2],20 min
same,nuclear uptake,[3],Nuclear uptake was not observed
